Experimental data reported in PMC12098869, “An mRNA-display derived cyclic peptide scaffold reveals the substrate binding interactions of an N-terminal cysteine oxidase” (Nature Communications, 2025).

B1: RGS5_(2-15), synthetic peptide corresponding to the methionine excised N-terminus of RGS5, residues 2 to 15 [human] / 2-aminoethanethiol dioxygenase (ADO), full-length human, N-terminally His-tagged and biotinylated (pQE80L-Navi-ADO) … (parent complex)
chain 1: CKGLAALPHSCLER
chain 2: MPRDNMASLIQRIARQACLTFRGSGGGRGASDRDAASGPEAPMQPGFPENLSKLKSLLTQLRAEDLNIAPRKATLQPLPPNLPPVTYMHIYETDGFSLGVFLLKSGTSIPLHDHPGMHGMLKVLYGTVRISCMDKLDAGGGQRPRALPPEQQFEPPLQPREREAVRPGVLRSRAEYTEASGPCILTPHRDNLHQIDAVEGPAAFLDILAPPYDPDDGRDCHYYRVLEPVRPKEASSSACDLPREVWLLETPQADDFWCEGEPYPGPKVFP

Variants of: B1
Test: SPR; parent: 1; read off a plot

Row | ratio to parent | Variant
1 | ~9 | chain 2 MPRDNMASLIQRIARQACLTFRGSGGGRGASDRDAASGPEAPMQPGFPENLSKLKSLLTQLRAEDLNIAPRKATLQPLPPNLPPVTAMHIYETDGFSLGVFLLKSGTSIPLHDHPGMHGMLKVLYGTVRISCMDKLDAGGGQRPRALPPEQQFEPPLQPREREAVRPGVLRSRAEYTEASGPCILTPHRDNLHQIDAVEGPAAFLDILAPPYDPDDGRDCHYYRVLEPVRPKEASSSACDLPREVWLLETPQADDFWCEGEPYPGPKVFP [chain 2 Y87A]
2 | ~74 | chain 2 MPRDNMASLIQRIARQACLTFRGSGGGRGASDRDAASGPEAPMQPGFPENLSKLKSLLTQLRAEDLNIAPRKATLQPLPPNLPPVTYMHIYETDGFSLGVALLKSGTSIPLHDHPGMHGMLKVLYGTVRISCMDKLDAGGGQRPRALPPEQQFEPPLQPREREAVRPGVLRSRAEYTEASGPCILTPHRDNLHQIDAVEGPAAFLDILAPPYDPDDGRDCHYYRVLEPVRPKEASSSACDLPREVWLLETPQADDFWCEGEPYPGPKVFP [chain 2 F101A]
